{"source": "patent US6153391A", "about": "“Interruption of binding of MDM2 and P53 protein and therapeutic application thereof” (University of Dundee, priority 1998, dated 2000)", "biological_target": "T1, mouse MDM2 (Mus musculus, UniProt P23804)", "T1 construct": "gene PCR-cloned from mouse prostate cell line", "T1 sequence (P23804 whole entry)": "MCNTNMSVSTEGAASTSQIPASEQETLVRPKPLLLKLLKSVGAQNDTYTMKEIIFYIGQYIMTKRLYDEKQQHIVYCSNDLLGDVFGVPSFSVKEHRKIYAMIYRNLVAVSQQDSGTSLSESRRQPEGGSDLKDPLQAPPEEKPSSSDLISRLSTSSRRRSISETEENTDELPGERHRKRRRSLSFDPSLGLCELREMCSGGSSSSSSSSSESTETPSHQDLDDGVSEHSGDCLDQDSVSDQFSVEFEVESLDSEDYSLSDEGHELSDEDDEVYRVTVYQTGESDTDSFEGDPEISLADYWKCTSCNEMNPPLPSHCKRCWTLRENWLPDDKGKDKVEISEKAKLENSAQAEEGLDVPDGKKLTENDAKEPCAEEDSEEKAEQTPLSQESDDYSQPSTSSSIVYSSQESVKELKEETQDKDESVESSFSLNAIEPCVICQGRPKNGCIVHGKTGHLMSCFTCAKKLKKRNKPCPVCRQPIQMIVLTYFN", "experiment": "ELISA of MDM2 binding to immobilised biotinylated p53 peptides (peptide library, alanine and conserved substitution series)", "settings": "consensus peptide and alanine substitution series, Example 3, FIG. 5", "experimental": "The libraries were in the form of 15 mer peptides linked to biotin via an additional peptide spacer region of serine-glycine-serine-glycine, and each peptide shared a 5 amino acid overlap with the previous peptide in the primary sequence. ELISA plates were coated with 100 μof 5 μg/ml streptavidin (vector labs) per well and incubated overnight at 37° C. and then blocked with phosphate buffered saline (PBS) containing 2% bovine serum albumin (BSA) for 1 hour at room temperature. The stock biotinylated peptides were diluted to 5 μg/ml in PBS containing 0.1 BSA and 50 μl of each were plated into designed wells and then incubated at room temperature for 1 hour. […] In the case of cell extracts bound protein was detected with the appropriate primary antibody at 1-3 μg/ml, and followed by an anti-mouse horse radish peroxidase conjugate and 3'3'4'4'-tetramethyl benzidine (TMB) substrate as in the standard ELISA assay (Harlow, E., et al (1988). Antibodies: a laboratory manual. New York. Cold Spring Harbor Laboratory Press and Lane, 1988).\nThese libraries consisted of 15 amino acid long sections of the p53 primary amino acid sequence, that consecutively overlapped by 5 amino acids, and were each attached to biotin via a 4 amino acid long spacer. […] The results are presented alongside the ELISA readings for extract of insect cells alone not expressing mouse MDM2. […]", "data": [{"sequence": "QETFSDLWKL", "values": [{"measurement": "level of MDM2 binding as measured by ELISA", "value": "higher level of binding of MDM2"}]}]}
